What was measured:
cyno FcRn/b2M [1] = molecular target: T1, cyno FcRn/b2M (cyno, UniProt Q8SPV9 24-297; Q8SPW0 21-119, biotinylated); experiment: SPR off-rate; pH 7.4 vs pH 6.0;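 further: surface plasmon resonance with diluted periplasmic extracts flowed over ligand surfaces, 120 s association and 600–3600 s dissociation at 25 °C, running buffer containing 150 mM NaCl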
T1 construct: bought recombinant biotinylated protein (Immunitrack ITF05 or ACRO FCM-C82W5); also called cFcRn; cFcRn/cb2M
Experimental: (§1) All kinetic measurements have been performed on ProteOn XPR36 (BioRad Laboratories, Inc.), MASS-2 (Sierra sensors, Gmbh) or SPR-32 (Bruker Corporation). […] The phytip purified periplasmic extracts were diluted 1:10 in running buffer (CPA+150 mM NaCl+0.005% Tw20 at pH 5.5, pH 6.0 or pH 7.4) and injected over the ligand surfaces (association: 120 s at 45 μL/min; dissociation: 600s-3600 s at 45 μL/min). Experiments were carried out at 25° C.

human FcRn/b2M [2] = molecular target: T2, human FcRn/b2M (human, UniProt P61769 21-119, biotinylated); experiment: SPR off-rate; pH 7.4 vs pH 6.0;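 further: surface plasmon resonance with diluted periplasmic extracts flowed over ligand surfaces, 120 s association and 600–3600 s dissociation at 25 °C, running buffer containing 150 mM NaCl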
T2 construct: bought recombinant biotinylated protein (ACRO FCM-H82W4 or Immunitrack ITF01); also called hFcRn; hFcRn/hb2M
T2 sequence (chain, as listed by the source limits assumed, chain 1 of 2): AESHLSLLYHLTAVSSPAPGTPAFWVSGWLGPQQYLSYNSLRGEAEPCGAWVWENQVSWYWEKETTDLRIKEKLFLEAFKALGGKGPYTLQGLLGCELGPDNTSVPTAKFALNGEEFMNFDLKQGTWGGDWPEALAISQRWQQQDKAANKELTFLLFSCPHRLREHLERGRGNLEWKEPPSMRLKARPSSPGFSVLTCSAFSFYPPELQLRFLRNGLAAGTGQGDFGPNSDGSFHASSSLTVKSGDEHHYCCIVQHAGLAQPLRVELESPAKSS
T2 sequence (P61769 21-119 limits assumed, chain 2 of 2): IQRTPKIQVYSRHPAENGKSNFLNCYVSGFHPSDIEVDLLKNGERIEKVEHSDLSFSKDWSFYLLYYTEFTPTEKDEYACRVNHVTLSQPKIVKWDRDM
Experimental: as §1

cyno FcRn/b2M [3] = molecular target: T1, cyno FcRn/b2M; experiment: SPR pH 6.0;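 further: surface plasmon resonance kinetics at 25 °C, diluted periplasmic extracts injected over immobilized ligand surfaces, 120 s association then 600–3600 s dissociation, running buffer containing 150 mM NaCl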
Experimental: as §1

human FcRn/b2M [4] = molecular target: T2, human FcRn/b2M; experiment: SPR pH 6.0;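 further: surface plasmon resonance kinetics at 25 °C, diluted periplasmic extracts injected over immobilized ligand surfaces, 120 s association then 600–3600 s dissociation, running buffer containing 150 mM NaCl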
Experimental: as §1

cyno FcRn/b2M [5] = molecular target: T1, cyno FcRn/b2M; experiment: SPR pH 7.4;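 further: surface plasmon resonance kinetics, periplasmic extracts diluted 1:10 flowed over immobilized target at 25 °C, 120 s association then 600–3600 s dissociation, buffer with 150 mM NaCl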
Experimental: as §1

human FcRn/b2M [6] = molecular target: T2, human FcRn/b2M; experiment: SPR pH 7.4;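 further: surface plasmon resonance kinetics, periplasmic extracts diluted 1:10 flowed over immobilized target at 25 °C, 120 s association then 600–3600 s dissociation, buffer with 150 mM NaCl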
Experimental: as §1

T1 sequence (Q8SPV9 24-297 limits assumed, chain 1 of 2): as the sequence (chain, as listed by the source limits assumed, chain 1 of 2) above, with N39D, E44Q, G99S, S189G, S190N, L217M, S269T counted along it
T1 sequence (Q8SPW0 21-119 limits assumed, chain 2 of 2): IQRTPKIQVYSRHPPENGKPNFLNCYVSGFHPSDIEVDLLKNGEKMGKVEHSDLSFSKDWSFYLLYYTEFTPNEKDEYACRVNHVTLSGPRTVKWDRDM

Binder | kd ratio pH 7.4/6.0 (cyno FcRn/b2M [1]) | kd ratio pH 7.4/6.0 (human FcRn/b2M [2]) | koff (cyno FcRn/b2M [3]) | koff (human FcRn/b2M [4]) | koff (cyno FcRn/b2M [5]) | koff (human FcRn/b2M [6])
T0263018B11 A93V (VHH, name in Kabat numbering, FLAG3-His6 tagged) VHH: EVQLVESGGGVVQPGGSLRLSCAASGFTFSSYAMYWVRQAPGKGLEWVSAISSGGGSTDYADSVKGRFTISRDNSKNTLYLQMNSLRPEDTALYYCVADTLYTSLTWYSYWGQGTLVTVSS | 67 | 50 | 0.0021 s⁻¹ | 0.003 s⁻¹ | 0.14 s⁻¹ | 0.15 s⁻¹
T0263018B11 G26H (VHH, name in Kabat numbering, FLAG3-His6 tagged) VHH: EVQLVESGGGVVQPGGSLRLSCAASHFTFSSYAMYWVRQAPGKGLEWVSAISSGGGSTDYADSVKGRFTISRDNSKNTLYLQMNSLRPEDTALYYCAADTLYTSLTWYSYWGQGTLVTVSS | 159 | 62 | 0.00016 s⁻¹ | 0.00055 s⁻¹ | 0.026 s⁻¹ | 0.034 s⁻¹
T0263018B11 D58H (VHH, name in Kabat numbering, FLAG3-His6 tagged) VHH: EVQLVESGGGVVQPGGSLRLSCAASGFTFSSYAMYWVRQAPGKGLEWVSAISSGGGSTHYADSVKGRFTISRDNSKNTLYLQMNSLRPEDTALYYCAADTLYTSLTWYSYWGQGTLVTVSS | 11 | 7 | 0.002 s⁻¹ | 0.012 s⁻¹ | 0.022 s⁻¹ | 0.079 s⁻¹
T0263018B11 G26E (VHH, name in Kabat numbering, FLAG3-His6 tagged) VHH: EVQLVESGGGVVQPGGSLRLSCAASEFTFSSYAMYWVRQAPGKGLEWVSAISSGGGSTDYADSVKGRFTISRDNSKNTLYLQMNSLRPEDTALYYCAADTLYTSLTWYSYWGQGTLVTVSS | 62 | 44 | 0.00081 s⁻¹ | 0.00095 s⁻¹ | 0.05 s⁻¹ | 0.042 s⁻¹
T0263018B11 F29D (VHH, name in Kabat numbering, FLAG3-His6 tagged) VHH: EVQLVESGGGVVQPGGSLRLSCAASGFTDSSYAMYWVRQAPGKGLEWVSAISSGGGSTDYADSVKGRFTISRDNSKNTLYLQMNSLRPEDTALYYCAADTLYTSLTWYSYWGQGTLVTVSS | 54 | 39 | 0.0028 s⁻¹ | 0.0036 s⁻¹ | 0.15 s⁻¹ | 0.14 s⁻¹
T0263018B11 A94S (VHH, name in Kabat numbering, FLAG3-His6 tagged) VHH: EVQLVESGGGVVQPGGSLRLSCAASGFTFSSYAMYWVRQAPGKGLEWVSAISSGGGSTDYADSVKGRFTISRDNSKNTLYLQMNSLRPEDTALYYCASDTLYTSLTWYSYWGQGTLVTVSS | 43 | 35 | 0.0011 s⁻¹ | 0.0013 s⁻¹ | 0.047 s⁻¹ | 0.046 s⁻¹
T0263018B11 G26N (VHH, name in Kabat numbering, FLAG3-His6 tagged) VHH: EVQLVESGGGVVQPGGSLRLSCAASNFTFSSYAMYWVRQAPGKGLEWVSAISSGGGSTDYADSVKGRFTISRDNSKNTLYLQMNSLRPEDTALYYCAADTLYTSLTWYSYWGQGTLVTVSS | 86 | 53 | 0.00037 s⁻¹ | 0.00081 s⁻¹ | 0.032 s⁻¹ | 0.042 s⁻¹
T0263018B11 F29G (VHH, name in Kabat numbering, FLAG3-His6 tagged) VHH: EVQLVESGGGVVQPGGSLRLSCAASGFTGSSYAMYWVRQAPGKGLEWVSAISSGGGSTDYADSVKGRFTISRDNSKNTLYLQMNSLRPEDTALYYCAADTLYTSLTWYSYWGQGTLVTVSS | 56 | 45 | 0.0025 s⁻¹ | 0.0033 s⁻¹ | 0.14 s⁻¹ | 0.15 s⁻¹
T0263018B11 G26D (VHH, name in Kabat numbering, FLAG3-His6 tagged) VHH: EVQLVESGGGVVQPGGSLRLSCAASDFTFSSYAMYWVRQAPGKGLEWVSAISSGGGSTDYADSVKGRFTISRDNSKNTLYLQMNSLRPEDTALYYCAADTLYTSLTWYSYWGQGTLVTVSS | 61 | 53 | 0.00095 s⁻¹ | 0.0012 s⁻¹ | 0.058 s⁻¹ | 0.063 s⁻¹
T0263018B11 D58E (VHH, name in Kabat numbering, FLAG3-His6 tagged) VHH: EVQLVESGGGVVQPGGSLRLSCAASGFTFSSYAMYWVRQAPGKGLEWVSAISSGGGSTEYADSVKGRFTISRDNSKNTLYLQMNSLRPEDTALYYCAADTLYTSLTWYSYWGQGTLVTVSS | 32 | 33 | 0.0012 s⁻¹ | 0.0024 s⁻¹ | 0.038 s⁻¹ | 0.08 s⁻¹
T0263018B11 F27Y (VHH, name in Kabat numbering, FLAG3-His6 tagged) VHH: EVQLVESGGGVVQPGGSLRLSCAASGYTFSSYAMYWVRQAPGKGLEWVSAISSGGGSTDYADSVKGRFTISRDNSKNTLYLQMNSLRPEDTALYYCAADTLYTSLTWYSYWGQGTLVTVSS | 93 | 45 | 0.00042 s⁻¹ | 0.0012 s⁻¹ | 0.039 s⁻¹ | 0.054 s⁻¹
T0263018B11 F29H (VHH, name in Kabat numbering, FLAG3-His6 tagged) VHH: EVQLVESGGGVVQPGGSLRLSCAASGFTHSSYAMYWVRQAPGKGLEWVSAISSGGGSTDYADSVKGRFTISRDNSKNTLYLQMNSLRPEDTALYYCAADTLYTSLTWYSYWGQGTLVTVSS | 42 | 36 | 0.0031 s⁻¹ | 0.0039 s⁻¹ | 0.13 s⁻¹ | 0.14 s⁻¹
T0263018B11 D58V (VHH, name in Kabat numbering, FLAG3-His6 tagged) VHH: EVQLVESGGGVVQPGGSLRLSCAASGFTFSSYAMYWVRQAPGKGLEWVSAISSGGGSTVYADSVKGRFTISRDNSKNTLYLQMNSLRPEDTALYYCAADTLYTSLTWYSYWGQGTLVTVSS | 11 | 9 | 0.0025 s⁻¹ | 0.015 s⁻¹ | 0.027 s⁻¹ | 0.14 s⁻¹
T0263018B11 F29V (VHH, name in Kabat numbering, FLAG3-His6 tagged) VHH: EVQLVESGGGVVQPGGSLRLSCAASGFTVSSYAMYWVRQAPGKGLEWVSAISSGGGSTDYADSVKGRFTISRDNSKNTLYLQMNSLRPEDTALYYCAADTLYTSLTWYSYWGQGTLVTVSS | 54 | 42 | 0.0016 s⁻¹ | 0.0021 s⁻¹ | 0.086 s⁻¹ | 0.089 s⁻¹
T0263018B11 G26M (VHH, name in Kabat numbering, FLAG3-His6 tagged) VHH: EVQLVESGGGVVQPGGSLRLSCAASMFTFSSYAMYWVRQAPGKGLEWVSAISSGGGSTDYADSVKGRFTISRDNSKNTLYLQMNSLRPEDTALYYCAADTLYTSLTWYSYWGQGTLVTVSS | 349 | 52 | 7.1e-05 s⁻¹ | 0.00063 s⁻¹ | 0.025 s⁻¹ | 0.033 s⁻¹
T0263018B11 F27L (VHH, name in Kabat numbering, FLAG3-His6 tagged) VHH: EVQLVESGGGVVQPGGSLRLSCAASGLTFSSYAMYWVRQAPGKGLEWVSAISSGGGSTDYADSVKGRFTISRDNSKNTLYLQMNSLRPEDTALYYCAADTLYTSLTWYSYWGQGTLVTVSS | 48 | 38 | 0.001 s⁻¹ | 0.0013 s⁻¹ | 0.048 s⁻¹ | 0.05 s⁻¹
T0263018B11 F29S (VHH, name in Kabat numbering, FLAG3-His6 tagged) VHH: EVQLVESGGGVVQPGGSLRLSCAASGFTSSSYAMYWVRQAPGKGLEWVSAISSGGGSTDYADSVKGRFTISRDNSKNTLYLQMNSLRPEDTALYYCAADTLYTSLTWYSYWGQGTLVTVSS | 45 | 41 | 0.0013 s⁻¹ | 0.0016 s⁻¹ | 0.059 s⁻¹ | 0.066 s⁻¹
T0263018B11 D58Y (VHH, name in Kabat numbering, FLAG3-His6 tagged) VHH: EVQLVESGGGVVQPGGSLRLSCAASGFTFSSYAMYWVRQAPGKGLEWVSAISSGGGSTYYADSVKGRFTISRDNSKNTLYLQMNSLRPEDTALYYCAADTLYTSLTWYSYWGQGTLVTVSS | 12 | 9 | 0.002 s⁻¹ | 0.01 s⁻¹ | 0.025 s⁻¹ | 0.089 s⁻¹

Source: US20240132624A1 (Ablynx, published 2024)
